Values of other authors in patent US5380646A, “Thrombus detection using radiolabelled disintegrins” (Temple University of the Commonwealth System of Higher …, priority 1992, dated 1995).

Tested on: thrombi
Conditions: literature, in words

B1: tissue plasminogen activator: plasminogen activator (protein, UniProt P00750 36-562, looked up)
Tissue-type plasminogen …: SYQVICRDEKTQMIYQQHQSWLRPVLRSNRVEYCWCNSGRAQCHSVPVKSCSEPRCFNGGTCQQALYFSDFVCQCPEGFAGKCCEIDTRATCYEDQGISYRGTWSTAESGAECTNWNSSALAQKPYSGRRPDAIRLGLGNHNYCRNPDRDSKPWCYVFKAGKYSSEFCSTPACSEGNSDCYFGNGSAYRGTHSLTESGASCLPWNSMILIGKVYTAQNPSAQALGLGKHNYCRNPDGDAKPWCHVLKNRRLTWEYCDVPSCSTCGLRQYSQPQFRIKGGLFADIASHPWQAAIFAKHRRSPGERFLCGGILISSCWILSAAHCFQERFPPHHLTVILGRTYRVVPGEEEQKFEVEKYIVHKEFDDDTYDNDIALLQLKSDSSRCAQESSVVRTVCLPPADLQLPDWTECELSGYGKHEALSPFYSERLKEAHVRLYPSSRCTSQHLLNRTVTDNMLCAGDTRSGGPQANLHDACQGDSGGPLVCLNDGRMTLVGIISWGLGCGQKDVPGVYTKVTNYLDWIRDNMRP
  ability to image or detect thrombi: only with marginal success
